Legend:
[1] = biological target: T1, R117A (Homo sapiens, UniProt P18827); experiment: alanine scan: flow cytometry on HEK-293T cells expressing the mutant clone, 4320 Fab 0.50 ug/mL, normalised to WT CD138; Range %WT Binding 13; Normalized 4320 vs. BB4 14.8
T1 construct: clone of the alanine scanning library on HEK-293T cells; m17 with one substitution; also called CD138 R117A
T1 sequence (CD138 (SDC1), full length, point mutant, looked up): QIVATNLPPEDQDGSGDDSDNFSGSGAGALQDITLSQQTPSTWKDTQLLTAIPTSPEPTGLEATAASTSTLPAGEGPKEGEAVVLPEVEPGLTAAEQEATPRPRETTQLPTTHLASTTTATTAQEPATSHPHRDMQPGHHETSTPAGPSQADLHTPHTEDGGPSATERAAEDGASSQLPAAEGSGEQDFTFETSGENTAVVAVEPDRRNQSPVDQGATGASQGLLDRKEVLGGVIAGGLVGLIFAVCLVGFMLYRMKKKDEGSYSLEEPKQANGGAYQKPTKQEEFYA
Experimental: (§1) Serial dilutions of each MAb were tested for immunoreactivity against cells expressing target protein (WT) or vector alone. Validation of target expression and optimization of detection and binding of anti-CD138 antibodies both by flow cytometry was completed in replicate (N=4). The optimal screening concentration for each MAb was determined based on the raw signal values and signal-to-background calculations specifically optimized for each test article. Optimized parameters included the use of 10% goat serum as blocking reagent. Primary antibody staining was for 60 minutes at 25° C. Wash buffer include phosphate buffered saline (divalent metal ion free), pH 7.4. […] Secondary antibodies were diluted 1:400 and incubated for 30 minutes at 25° C.
(§2) Library screens of very-high-affinity mAbs can fail to yield critical residues for antibody binding due to deficiencies of such an assay to detect and differentiate critical vs. less critical binding based on affinity and quantification of cell binding. One common approach in the literature is the use of monovalent antibody derived fragments such as Fab usually weakens binding sufficiently to allow identification of critical residues for binding. […] Binding of each test Ab to each mutant clone in the alanine scanning library was determined, in duplicate, and likewise evaluated by flow cytometry.

[2] = biological target: T2, G169A (Homo sapiens, UniProt P18827); experiment: alanine scan: flow cytometry on HEK-293T cells expressing the mutant clone, 4320 Fab 0.50 ug/mL, normalised to WT CD138; Range %WT Binding 2; Normalized 4320 vs. BB4 44.4
T2 construct: clone of the alanine scanning library on HEK-293T cells; m17 with one substitution; also called CD138 G169A
T2 sequence (CD138 (SDC1), full length, point mutant, looked up): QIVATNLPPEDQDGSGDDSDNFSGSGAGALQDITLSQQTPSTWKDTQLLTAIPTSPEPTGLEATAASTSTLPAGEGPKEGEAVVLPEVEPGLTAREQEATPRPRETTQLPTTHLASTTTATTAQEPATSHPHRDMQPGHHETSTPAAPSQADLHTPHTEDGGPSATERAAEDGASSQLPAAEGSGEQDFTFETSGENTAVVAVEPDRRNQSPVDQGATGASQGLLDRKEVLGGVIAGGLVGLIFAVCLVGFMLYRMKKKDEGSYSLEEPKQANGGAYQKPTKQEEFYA
Experimental: as §1, §2

[3] = biological target: T3, A168S (Homo sapiens, UniProt P18827); experiment: alanine scan: flow cytometry on HEK-293T cells expressing the mutant clone, 4320 Fab 0.50 ug/mL, normalised to WT CD138; Range %WT Binding 3; Normalized 4320 vs. BB4 57.9
T3 construct: clone of the alanine scanning library on HEK-293T cells; m17 with one substitution (alanine changed to serine); also called CD138 A168S
T3 sequence (CD138 (SDC1), full length, point mutant, looked up): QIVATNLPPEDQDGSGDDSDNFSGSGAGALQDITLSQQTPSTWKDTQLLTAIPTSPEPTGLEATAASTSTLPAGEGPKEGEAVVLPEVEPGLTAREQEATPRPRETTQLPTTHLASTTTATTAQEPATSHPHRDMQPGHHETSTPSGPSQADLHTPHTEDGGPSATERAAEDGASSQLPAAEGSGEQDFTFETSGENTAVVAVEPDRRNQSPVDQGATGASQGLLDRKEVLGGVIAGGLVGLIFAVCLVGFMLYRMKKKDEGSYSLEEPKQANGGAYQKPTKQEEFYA
Experimental: as §1, §2

[4] = biological target: T4, V110A (Homo sapiens, UniProt P18827); experiment: alanine scan: flow cytometry on HEK-293T cells expressing the mutant clone, 4320 Fab 0.50 ug/mL, normalised to WT CD138; Range %WT Binding 2; Normalized 4320 vs. BB4 28.3
T4 construct: clone of the alanine scanning library on HEK-293T cells; m17 with one substitution; also called CD138 V110A
T4 sequence (CD138 (SDC1), full length, point mutant, looked up): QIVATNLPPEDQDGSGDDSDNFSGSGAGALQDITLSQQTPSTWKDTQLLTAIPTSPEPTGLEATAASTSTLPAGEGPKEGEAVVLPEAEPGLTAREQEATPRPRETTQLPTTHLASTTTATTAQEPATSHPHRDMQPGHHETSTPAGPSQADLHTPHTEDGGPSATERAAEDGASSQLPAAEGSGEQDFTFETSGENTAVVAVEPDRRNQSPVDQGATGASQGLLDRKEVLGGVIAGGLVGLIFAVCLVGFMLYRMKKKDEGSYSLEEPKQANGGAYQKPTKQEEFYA
Experimental: as §1, §2

[5] = biological target: T5, G160A (Homo sapiens, UniProt P18827); experiment: alanine scan: flow cytometry on HEK-293T cells expressing the mutant clone, 4320 Fab 0.50 ug/mL, normalised to WT CD138; Range %WT Binding 24; Normalized 4320 vs. BB4 60.2
T5 construct: clone of the alanine scanning library on HEK-293T cells; m17 with one substitution; also called CD138 G160A
T5 sequence (CD138 (SDC1), full length, point mutant, looked up): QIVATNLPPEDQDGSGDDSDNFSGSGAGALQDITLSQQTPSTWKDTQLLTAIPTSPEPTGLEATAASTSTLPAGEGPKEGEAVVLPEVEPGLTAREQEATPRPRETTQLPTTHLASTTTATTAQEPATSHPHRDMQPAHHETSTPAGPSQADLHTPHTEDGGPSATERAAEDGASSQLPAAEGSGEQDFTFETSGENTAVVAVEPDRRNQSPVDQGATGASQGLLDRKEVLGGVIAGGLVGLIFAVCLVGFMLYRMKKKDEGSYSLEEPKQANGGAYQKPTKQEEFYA
Experimental: as §1, §2

B1: Fab fragment of mAb 4320 (Fab, V domains shown)
VH: QVQLVQSGAEVKKPGASVKVSCKASGYSFSSYYMHWVRQAPGQGLEWMGTIHPSDSTTNYNQKFQGRVTMTVDTSTRTAYMELSSLRSEDTAVYYCANFVYWGQGTTVTVSS
VL: DIVMTQTPLSLSVTPGQPASISCKSSKSLLYKDGKTYLNWFLQKPGQSPQLLIYVVSTRASGVPDRFSGSGSGTDFTLKISRVEAEDVGVYYCQQLVEYPYTFGQGTKLEIKR
modifications: N-terminal Q1 observed as pyroglutamic acid (PCA) in the 138-2-5 complex
notes: In the crystal structures heavy chain residues 1-213 were traced; also called Fab4320
[1]
  Mean %WT Binding: 14.4 %WT
[2]
  Mean %WT Binding: 13.2 %WT
[3]
  Mean %WT Binding: 44.9 %WT
[4]
  Mean %WT Binding: 21.9 %WT
[5]
  Mean %WT Binding: 59.7 %WT

From patent publication US20230348614A1 (VISTERRA, published 2023)
